Patent US6723838

Target: purified H-ras GST fusion protein [GST: P08515]
Sequence (P08515 whole entry, looked up, the tested form may be a part): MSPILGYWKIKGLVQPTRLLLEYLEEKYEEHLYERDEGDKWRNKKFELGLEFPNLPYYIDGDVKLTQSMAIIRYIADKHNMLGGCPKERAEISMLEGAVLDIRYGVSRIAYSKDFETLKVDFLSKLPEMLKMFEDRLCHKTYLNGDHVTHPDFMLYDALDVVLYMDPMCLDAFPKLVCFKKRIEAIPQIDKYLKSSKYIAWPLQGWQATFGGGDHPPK

B1: GST fusion protein of the GAP domain (266-521) of SYNGAP (protein)
chain: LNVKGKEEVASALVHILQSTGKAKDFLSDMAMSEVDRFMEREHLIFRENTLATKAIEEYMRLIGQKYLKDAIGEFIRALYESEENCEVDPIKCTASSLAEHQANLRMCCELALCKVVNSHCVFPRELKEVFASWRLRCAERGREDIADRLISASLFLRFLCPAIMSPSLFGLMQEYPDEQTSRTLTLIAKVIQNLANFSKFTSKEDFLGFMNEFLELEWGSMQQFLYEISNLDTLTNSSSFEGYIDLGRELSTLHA
GTPase activity of Ras ([gamma-32P]-GTP filter assay): addition of the GST fusion protein of the GAP domain of SYNGAP dramatically stimulated the GTPase activity of Ras
